From the supplement of paper PMC5998384

Key:
HeLa Kyoto [1] = assay: solubility in G1/S (NP-40 vs SDS abundance) (log2 ratio); higher = more soluble; details: cell cycle stage: G1/S
HeLa Kyoto [2] = assay: solubility change mitosis vs G1/S (difference of NP-40 vs SDS log2 ratios) (log2 ratio difference); higher = more soluble in mitosis
HeLa Kyoto [3] = assay: thermal stability score vs G1/S (z-score of summed log2 fold changes over temperatures); higher = more thermally stable than in G1/S
[4] = cell cycle stage: early G1 (4.5 h after nocodazole release)
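Wherever solubility change mitosis vs G1/S (difference of NP-40 vs SDS log2 ratios) is given: synchronized HeLa Kyoto cells (double thymidine block for G1/S, nocodazole release for mitosis), protein amounts in NP-40 versus SDS lysates quantified by mass spectrometry, three biological replicates.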
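Wherever solubility in G1/S (NP-40 vs SDS abundance) is given: HeLa Kyoto cells arrested at G1/S by double thymidine block, proteins quantified by TMT10plex mass spectrometry in mild NP-40 versus SDS extracts, three biological replicates.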
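Wherever thermal stability score vs G1/S (z-score of summed log2 fold changes over temperatures) is given: synchronized HeLa Kyoto cells, proteins quantified by TMT10plex mass spectrometry, three biological replicates, mitosis taken 0.5 h after nocodazole release, G1/S directly after double thymidine block.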

Sequence	solubility in G1/S (log2) (HeLa Kyoto [1])	solubility change mitosis (log2) (HeLa Kyoto [2])	thermal stability score (HeLa Kyoto [3]; [4])	thermal stability score (HeLa Kyoto [3]; cell cycle stage: mitosis)
MPDIIWVFPPQAEAEEDCHSDTVRADDDEENESPAETDLQAQLQMFRAQWMFELAPGVSSSNLENRPCRAARGSLQKTSADTKGKQEQAKEEKARELFLKAVEEEQNGALYEAIKFYRRAMQLVPDIEFKITYTRSPDGDGVGNSYIEDNDDDSKMADLLSYFQQQLTFQESVLKLCQPELESSQIHISVLPMEVLMYIFRWVVSSDLDLRSLEQLSLVCRGFYICARDPEIWRLACLKVWGRSCIKLVPYTSWREMFLERPRVRFDGVYISKTTYIRQGEQSLDGFYRAWHQVEYYRYIRFFPDGHVMMLTTPEEPQSIVPRLRTRNTRTDAILLGHYRLSQDTDNQTKVFAVITKKKEEKPLDYKYRYFRRVPVQEADQSFHVGLQLCSSGHQRFNKLIWIHHSCHITYKSTGETAVSAFEIDKMYTPLFFARVRSYTAFSERPL [FBXO9]	-0.365	0.156	0.568	0.333
MPFLHGFRRIIFEYQPLVDAILGSLGIQDPERQESLDRPSYVASEESRILVLTELLERKAHSPFYQEGVSNALLKMAELGLTRAADVLLRHGANLNFEDPVTYYTALHIAVLRNQPDMVELLVHHGADVNRRDRIHESSPLDLASEEPERLPCLQRLLDLGADVNAADKHGKTALLHALASSDGVQIHNTENIRLLLEGGADVKATTKDGDTVFTCIIFLLGETVGGDKEEAQMINRFCFQVTRLLLAHGADPSECPAHESLTHICLKSFKLHFPLLRFLLESGAAYNCSLHGASCWSGFHIIFERLCSHPGCTEDESHADLLRKAETVLDLMVTNSQKLQLPENFDIHPVGSLAEKIQALHFSLRQLESYPPPLKHLCRVAIRLYLQPWPVDVKVKALPLPDRLKWYLLSEHSGSVEDDI [ASB6]	0.206	0.0228	0.0535	0.637
MPGRSSSNSGSTGFISFSGVESALSSLKNFQACINSGMDTASSVALDLVESQTEVSSEYSMDKAMVEFATLDRQLNHYVKAVQSTINHVKEERPEKIPDLKLLVEKKFLALQSKNSDADFQNNEKFVQFKQQLKELKKQCGLQADREADGTEGVDEDIIVTQSQTNFTCPITKEEMKKPVKNKVCGHTYEEDAIVRMIESRQKRKKKAYCPQIGCSHTDIRKSDLIQDEALRRAIENHNKKRHRHSE [NSMCE2]	-0.0327	0.0514	-0.691	-0.266
MRPPACWWLLAPPALLALLTCSLAFGLASEDTKKEVKQSQDLEKSGISRKNDIDLKGIVFVIQSQSNSFHAKRAEQLKKSILKQAADLTQELPSVLLLHQLAKQEGAWTILPLLPHFSVTYSRNSSWIFFCEEETRIQIPKLLETLRRYDPSKEWFLGKALHDEEATIIHHYAFSENPTVFKYPDFAAGWALSIPLVNKLTKRLKSESLKSDFTIDLKHEIALYIWDKGGGPPLTPVPEFCTNDVDFYCATTFHSFLPLCRKPVKKKDIFVAVKTCKKFHGDRIPIVKQTWESQASLIEYYSDYTENSIPTVDLGIPNTDRGHCGKTFAILERFLNRSQDKTAWLVIVDDDTLISISRLQHLLSCYDSGEPVFLGERYGYGLGTGGYSYITGGGGMVFSREAVRRLLASKCRCYSNDAPDDMVLGMCFSGLGIPVTHSPLFHQARPVDYPKDYLSHQVPISFHKHWNIDPVKVYFTWLAPSDEDKARQETQKGFREEL [B3GLCT]	0.0765	-0.0692	1.99	2.59
MSAKDERAREILRGFKLNWMNLRDAETGKILWQGTEDLSVPGVEHEARVPKKILKCKAVSRELNFSSTEQMEKFRLEQKVYFKGQCLEEWFFEFGFVIPNSTNTWQSLIEAAPESQMMPASVLTGNVIIETKFFDDDLLVSTSRVRLFYV [PDE6D]	0.207	-0.258	0.113	-0.864
MSGDTCLCPASGAKPKLSGFKGGGLGNKYVQLNVGGSLYYTTVRALTRHDTMLKAMFSGRMEVLTDKEGWILIDRCGKHFGTILNYLRDDTITLPQNRQEIKELMAEAKYYLIQGLVNMCQSALQDKKDSYQPVCNIPIITSLKEEERLIESSTKPVVKLLYNRSNNKYSYTSNSDDHLLKNIELFDKLSLRFNGRVLFIKDVIGDEICCWSFYGQGRKLAEVCCTSIVYATEKKQTKVEFPEARIYEETLNVLLYETPRVPDNSLLEATSRSRSQASPSEDEETFELRDRVRRIHVKRYSTYDDRQLGHQSTHRD [TNFAIP1]	-1.22	0.627	1.18e-17	-0.17
